According to patent US20180273622A1 (APTEVO RESEARCH AND DEVELOPMENT, published 2018):

Assays:
[1] = target: T1, human CD3 (human, UniProt P07766 23-207; P09693 23-182; P04234 22-171; P20963 22-164); test: flow cytometry on a Jurkat subclone with higher CD3 expression (FIG. 2)
T1 construct: whole, on cells; It was presented on the CD3+ Jurkat T-cell line, on a Jurkat subclone with higher CD3 expression, or on human T-cells; also called CD3 on Jurkat T-cells; CD3 on human T-cells

[2] = target: T1, human CD3; test: flow cytometry on Jurkat T-cells, anti-human IgG detection
Experimental: Binding studies were performed by standard flow cytometry-based staining procedures using the CD3⁺ Jurkat T-cell line. All labeling and washes were performed in U-bottom 96-well plates in saline buffer with 3% BSA and 2 mM EDTA. Jurkat cells were plated at 200,000 cells per well and incubated with a range of 0.1 nM to 200 nM concentrations of test molecules in 50 μL volume/well, for 30 minutes on ice. Cells were washed three times then incubated for another 30 minutes on ice with fluorescently-labeled minimum cross reactive secondary polyclonal antibody, F(ab′)² goat anti-human IgG, (Jackson ImmunoResearch Laboratories) and the viability dye 7-AAD. The cells were then washed twice, and the samples acquired in a BD LSRII flow cytometer. The sample files were analyzed using FlowJo software; the mean fluorescence intensity (MFI) of the live population of Jurkat cells in each well was calculated after gating on live cells (forward vs. side scatter, then 7-AAD cells).

T1 sequence (P07766 23-207, chain 1 of 4): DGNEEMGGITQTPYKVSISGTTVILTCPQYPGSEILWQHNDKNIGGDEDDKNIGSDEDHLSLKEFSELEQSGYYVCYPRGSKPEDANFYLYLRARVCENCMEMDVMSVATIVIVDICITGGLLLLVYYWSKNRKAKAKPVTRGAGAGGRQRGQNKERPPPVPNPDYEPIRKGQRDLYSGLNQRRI
T1 sequence (P09693 23-182, chain 2 of 4): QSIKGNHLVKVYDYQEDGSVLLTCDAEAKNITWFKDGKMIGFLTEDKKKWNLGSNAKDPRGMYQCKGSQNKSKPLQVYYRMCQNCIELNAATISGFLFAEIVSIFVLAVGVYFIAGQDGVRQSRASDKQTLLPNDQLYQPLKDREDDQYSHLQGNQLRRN
T1 sequence (P04234 22-171, chain 3 of 4): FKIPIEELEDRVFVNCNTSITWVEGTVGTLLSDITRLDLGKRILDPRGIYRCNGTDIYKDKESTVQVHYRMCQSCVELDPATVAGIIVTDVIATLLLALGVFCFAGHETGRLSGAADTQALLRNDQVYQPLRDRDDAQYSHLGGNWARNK
T1 sequence (P20963 22-164, chain 4 of 4): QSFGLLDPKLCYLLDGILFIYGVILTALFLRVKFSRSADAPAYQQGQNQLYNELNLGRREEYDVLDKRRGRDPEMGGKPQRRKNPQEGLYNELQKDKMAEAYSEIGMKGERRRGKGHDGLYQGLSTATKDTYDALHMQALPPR

Row | fold higher EC50 than TSC312 [1] [fold] | EC50 [2] [nM] | fold increase in the EC50 of binding compared to TSC312 [2] [fold] | Binder
1 | 2 |  |  | Fc H10L7 (TSC341) (Fc fusion, Fc anti-CD3 scFv format; The entry is the mature protein) EPKSSDKTHTCPPCPAPEAAGAPSVFLFPPKPKDTLMISRTPEVTCVVVDVSHEDPEVKFNWYVDGVEVHNAKTKPREEQYNSTYRVVSVLTVLHQDWLNGKAYACAVSNKALPAPIEKTISKAKGQPREPQVYTLPPSRDELTKNQVSLTCLVKGFYPSDIAVEWESNGQPENNYKTTPPVLDSDGSFFLYSKLTVDKSRWQQGNVFSCSVMHEALHNHYTQKSLSLSPGQRHNNSSLNTGTQMAGHSPNSQVQLVQSGAEVKKPGSSVKVSCKASGGTFSRSTMHWVRQAPGQGLEWMGYINPSSAYTNYNQKFKDRVTITADKSTSTAYMELSSLRSEDTAVYYCARPQVHYDYNGFPYWGQGTLVTVSSGGGGSGGGGSGGGGSGGGGSEIVLTQSPATLSLSPGERATLSCSASSSVSYMNWYQQKPGLAPRRWIYDSSKLASGIPDRFSGSGSGTDFTLTISRLEPEDFAVYYCQQWSRNPPTFGGGTKVEIKRSSS
2 |  | 3.6 | 2 | Fc H10L5 (TSC324) (Fc fusion, Fc anti-CD3 scFv format with H75 linker; The entry is the mature protein) EPKSSDKTHTCPPCPAPEAAGAPSVFLFPPKPKDTLMISRTPEVTCVVVDVSHEDPEVKFNWYVDGVEVHNAKTKPREEQYNSTYRVVSVLTVLHQDWLNGKAYACAVSNKALPAPIEKTISKAKGQPREPQVYTLPPSRDELTKNQVSLTCLVKGFYPSDIAVEWESNGQPENNYKTTPPVLDSDGSFFLYSKLTVDKSRWQQGNVFSCSVMHEALHNHYTQKSLSLSPGQRHNNSSLNTGTQMAGHSPNSQVQLVQSGAEVKKPGSSVKVSCKASGGTFSRSTMHWVRQAPGQGLEWMGYINPSSAYTNYNQKFKDRVTITADKSTSTAYMELSSLRSEDTAVYYCARPQVHYDYNGFPYWGQGTLVTVSSGGGGSGGGGSGGGGSGGGGSDIQMTQSPSSLSASVGDRVTITCSASSSVSYMNWYQQKPGKAPKLLIYDSSKLASGVPSRFSGSGSGTDFTLTISSLQPEDFATYYCQQWSRNPPTFGGGTKVEIKRSSS
3 | 2 |  |  | Fc H10L6 (TSC340) (Fc fusion, Fc anti-CD3 scFv format; The entry is the mature protein) EPKSSDKTHTCPPCPAPEAAGAPSVFLFPPKPKDTLMISRTPEVTCVVVDVSHEDPEVKFNWYVDGVEVHNAKTKPREEQYNSTYRVVSVLTVLHQDWLNGKAYACAVSNKALPAPIEKTISKAKGQPREPQVYTLPPSRDELTKNQVSLTCLVKGFYPSDIAVEWESNGQPENNYKTTPPVLDSDGSFFLYSKLTVDKSRWQQGNVFSCSVMHEALHNHYTQKSLSLSPGQRHNNSSLNTGTQMAGHSPNSQVQLVQSGAEVKKPGSSVKVSCKASGGTFSRSTMHWVRQAPGQGLEWMGYINPSSAYTNYNQKFKDRVTITADKSTSTAYMELSSLRSEDTAVYYCARPQVHYDYNGFPYWGQGTLVTVSSGGGGSGGGGSGGGGSGGGGSDIQMTQSPSSLSASVGDRVTITCSASSSVSYMNWYQQKPGKAPKRWIYDSSKLASGVPSRFSGSGSGTDFTLTISSLQPEDFATYYCQQWSRNPPTFGGGTKVEIKRSSS
4 | 2 |  |  | Fc H10L8 (TSC342) (Fc fusion, Fc anti-CD3 scFv format; The entry is the mature protein) EPKSSDKTHTCPPCPAPEAAGAPSVFLFPPKPKDTLMISRTPEVTCVVVDVSHEDPEVKFNWYVDGVEVHNAKTKPREEQYNSTYRVVSVLTVLHQDWLNGKAYACAVSNKALPAPIEKTISKAKGQPREPQVYTLPPSRDELTKNQVSLTCLVKGFYPSDIAVEWESNGQPENNYKTTPPVLDSDGSFFLYSKLTVDKSRWQQGNVFSCSVMHEALHNHYTQKSLSLSPGQRHNNSSLNTGTQMAGHSPNSQVQLVQSGAEVKKPGSSVKVSCKASGGTFSRSTMHWVRQAPGQGLEWMGYINPSSAYTNYNQKFKDRVTITADKSTSTAYMELSSLRSEDTAVYYCARPQVHYDYNGFPYWGQGTLVTVSSGGGGSGGGGSGGGGSGGGGSDIQMTQSPSTLSASVGDRVTITCSASSSVSYMNWYQQKPGKAPKRWIYDSSKLASGVPSRFSGSGSGTEFTLTISSLQPDDFATYYCQQWSRNPPTFGGGTKVEIKRSSS
